# Assay results reported in US20160194641, “G-RICH isoDNA SEQUENCES FORMING G-QUADRUPLEX STRUCTURE, THEIR FUNCTION AS [sequence] AND A PROCESS FOR THE PREPARATION THEREOF” (COUNCIL OF SCIENTIFIC & INDUSTRIAL RESEARCH, published 2016).
# Target: thrombin (Bos taurus, UniProt P00735;P00735 P00735:318-366,P00735:367-625)
# Assay: CD titration at 295 nm, low temperature, without K+; signal increases with thrombin; Tm with thrombin 22 C (53 C with K+)
# Settings: tags: copies: 1; antiparallel unimolecular G4
# Description: CD spectra were recorded on Jasco J-815 CD Spectrometer equipped with a Jasco PTC-424S/15 peltier system. 2 mm path-length quartz cuvettes were used for a sample volume 500 μl and strand concentration of 5 μM in 10 mM Na/K-phosphate buffer (pH 7.5) containing 100 mM NaCl/KCl respectively. Oligomers prepared in buffer were annealed by heating at 95° C. for 5 minutes, then slowly cooled to room temperature, followed by refrigeration for 5-6 hours before use. Spectral scans were collected over a wavelength range 200-320 nm at a scanning rate of 100 nm min⁻¹. The spectra were collected as an average of three scans for each sample.
# Biochem. Biophys. Res. Commun. 352, 812-817 (2007). […] An increase in the CD signal amplitude upon incremental addition of thrombin is observed even at relatively low concentrations of thrombin. In case of isod-TBA-2 and isod-TBA-3, CD band at 295 nm and G-quadruplex structure was not evident in the absence of either thrombin or K⁺, which is also supported by ¹H NMR. Upon incremental addition of thrombin, the CD maximum at 295 nm emerges for isod-TBA-2 and isod-TBA-3. […] Further, the temperature-dependent stability of the quadruplex structure was followed by recording the CD amplitude at 295 nm with increasing temperature. The strength of d-TBA-1 G-quadruplex was the highest with Tₘ=22° C., followed by iso-d-TBA-3 (Tₘ 13° C.) and iso-d-TBA-2 (Tₘ<10° C.). […]
binder,measurement,value
GGTTGGTGTGGTTGG (structured_DNA) [d-TBA-1],binding result,binds
